± gives the uncertainty stated by the source.

32 substances from the Human Domainome abundance scans (Beltran et al. 2025) can be followed below.

This data set can be described thus: abundance fitness (aPCA) (normalised: wild type 0, dead -1); higher = more abundant; growth selection in yeast, the domain comes from the species named. The following applies: Homo sapiens.
With “NEDD4-like E3 ubiquitin-protein ligase WWP2 S481E, O00308”, the abundance fitness was 0.022 ± 0.071.
As for “NEDD4-like E3 ubiquitin-protein ligase WWP2 S481F, O00308”, the abundance fitness is -0.039 ± 0.062.
The figure for “NEDD4-like E3 ubiquitin-protein ligase WWP2 S481G, O00308” is -0.032 ± 0.047.
With “NEDD4-like E3 ubiquitin-protein ligase WWP2 S481H, O00308” the figure was -0.17 ± 0.08; with “NEDD4-like E3 ubiquitin-protein ligase WWP2 S481I, O00308”, -0.047 ± 0.067; with “NEDD4-like E3 ubiquitin-protein ligase WWP2 S481K, O00308”, -0.072 ± 0.049.
Take “NEDD4-like E3 ubiquitin-protein ligase WWP2 S481L, O00308”: the abundance fitness is -0.081 ± 0.053.
With “NEDD4-like E3 ubiquitin-protein ligase WWP2 S481N, O00308” the figure was -0.062 ± 0.054; with “NEDD4-like E3 ubiquitin-protein ligase WWP2 S481P, O00308”, 0.003 ± 0.049; with “NEDD4-like E3 ubiquitin-protein ligase WWP2 S481Q, O00308”, -0.014 ± 0.039.
The figure for “NEDD4-like E3 ubiquitin-protein ligase WWP2 S481R, O00308” is -0.042 ± 0.034; for “NEDD4-like E3 ubiquitin-protein ligase WWP2 S481T, O00308” it is 0.029 ± 0.047.
The figure for “NEDD4-like E3 ubiquitin-protein ligase WWP2 S481V, O00308” is -0.151 ± 0.056.
On to “NEDD4-like E3 ubiquitin-protein ligase WWP2 S481W, O00308”, for which the abundance fitness was -0.09 ± 0.035.
The substance “NEDD4-like E3 ubiquitin-protein ligase WWP2 S481Y, O00308” displayed an abundance fitness of -0.102 ± 0.063.
With “NEDD4-like E3 ubiquitin-protein ligase WWP2 S487A, O00308” the figure was -0.034 ± 0.055; with “NEDD4-like E3 ubiquitin-protein ligase WWP2 S487C, O00308”, -0.032 ± 0.04.
The figure for “NEDD4-like E3 ubiquitin-protein ligase WWP2 S487D, O00308” is 0.013 ± 0.036; for “NEDD4-like E3 ubiquitin-protein ligase WWP2 S487E, O00308” it is 0.025 ± 0.034; for “NEDD4-like E3 ubiquitin-protein ligase WWP2 S487F, O00308” it is -0.112 ± 0.057.
With “NEDD4-like E3 ubiquitin-protein ligase WWP2 S487G, O00308” the figure was -0.03 ± 0.034.
“NEDD4-like E3 ubiquitin-protein ligase WWP2 S487H, O00308” gave an abundance fitness of 0.111 ± 0.073.
With “NEDD4-like E3 ubiquitin-protein ligase WWP2 S487I, O00308” the figure was -0.038 ± 0.074.
The figure for “NEDD4-like E3 ubiquitin-protein ligase WWP2 S487K, O00308” is 0.016 ± 0.038; for “NEDD4-like E3 ubiquitin-protein ligase WWP2 S487L, O00308” it is -0.067 ± 0.04.
The figure for “NEDD4-like E3 ubiquitin-protein ligase WWP2 S487M, O00308” is -0.024 ± 0.057; for “NEDD4-like E3 ubiquitin-protein ligase WWP2 S487N, O00308” it is -0.034 ± 0.04.
Substance “NEDD4-like E3 ubiquitin-protein ligase WWP2 S487Q, O00308” gave an abundance fitness of -0.024 ± 0.061.
Regarding “NEDD4-like E3 ubiquitin-protein ligase WWP2 S487R, O00308”, the abundance fitness was -0.006 ± 0.034.
The figure for “NEDD4-like E3 ubiquitin-protein ligase WWP2 S487T, O00308” is 0.058 ± 0.059; for “NEDD4-like E3 ubiquitin-protein ligase WWP2 S487V, O00308” it is -0.034 ± 0.035; for “NEDD4-like E3 ubiquitin-protein ligase WWP2 S487W, O00308” it is -0.149 ± 0.05.
